One test has as its target T1, rhNaglu (Homo sapiens, UniProt P54802).
T1 construct: The N-terminal 23 amino acids are cleaved as the precursor protein enters the endoplasmic reticulum, resulting in a mature form; made in house; host or cells: human fibrosarcoma HT1080 cell clone over-expressing rhNaglu
T1 sequence (P54802 24-743): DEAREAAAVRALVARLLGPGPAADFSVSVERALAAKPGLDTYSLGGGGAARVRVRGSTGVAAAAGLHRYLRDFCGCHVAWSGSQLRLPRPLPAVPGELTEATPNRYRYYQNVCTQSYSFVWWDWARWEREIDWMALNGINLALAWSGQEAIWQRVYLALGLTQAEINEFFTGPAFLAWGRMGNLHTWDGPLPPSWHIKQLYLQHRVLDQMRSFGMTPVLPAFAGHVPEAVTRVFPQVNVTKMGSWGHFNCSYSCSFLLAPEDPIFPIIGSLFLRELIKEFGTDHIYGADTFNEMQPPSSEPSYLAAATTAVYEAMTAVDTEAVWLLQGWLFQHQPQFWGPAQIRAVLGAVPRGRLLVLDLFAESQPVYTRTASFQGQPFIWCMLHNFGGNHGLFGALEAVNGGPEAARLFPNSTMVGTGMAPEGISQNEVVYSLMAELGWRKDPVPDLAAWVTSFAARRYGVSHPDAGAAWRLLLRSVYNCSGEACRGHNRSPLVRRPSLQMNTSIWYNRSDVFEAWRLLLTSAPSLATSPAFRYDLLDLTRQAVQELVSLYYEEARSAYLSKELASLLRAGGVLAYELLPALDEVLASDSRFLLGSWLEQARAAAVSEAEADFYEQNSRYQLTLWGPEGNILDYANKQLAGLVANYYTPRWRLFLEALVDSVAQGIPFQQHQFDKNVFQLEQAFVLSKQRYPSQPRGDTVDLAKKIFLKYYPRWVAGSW
Put plainly: Naglu activity assay with various inhibitors (4MU-GlcNAc fluorescent substrate). The note with it: added at 0.0625, 0.25, 1, 4 and 8 mM; 37° C., 1 hour, pH 4.5. Format: biochemical. The method, then: A 10 mM stock of Naglu activity substrate solution was prepared by dissolving 5 mg of substrate, i.e., 4-methylumbelliferyl-N-acetyl-α-D-glucosaminide, in 250 μl of 100% DMSO. Naglu activity assay reaction buffer (0.1 M sodium acetate, 0.5 mg/ml BSA, pH 4.5) was then added to bring the volume up to 1318 μl. This 10 mM substrate stock solution was then diluted 10 fold with reaction buffer to make the final 1 mM substrate solution.
Samples and controls were pre-diluted in reaction buffer. 10 μl of each pre-diluted sample/control were applied in duplicate wells on a black clear bottom 96 well plate. 75 μl of 1 mM substrate solution containing various concentrations of inhibitors were added to each well. The plates were sealed with plate sealer and wrapped with aluminum foil. The plates were then placed in a Boekel Jitterbug Microplate Incubator Shaker (Cole-Parmer, Vernon Hills, Ill.) and shaken (setting at #1) at 37° C. for 1 hour. 200 μl of Stop Buffer (0.2 M Glycine, pH 10.7) were then added to all of the wells and fluorescence emission (excitation/emission at 360 nm/460 nm, respectively) was measured using a SpectraMax® Plus M2 plate reader from Molecular Devices (Sunnyvale, Calif.).
To further confirm that rhNaglu could hydrolyze UDP-GlcNAc, we investigated whether UDP-GlcNAc inhibited the hydrolysis by rhNaglu of the fluorescent substrate 4MU-GlcNAc (4-methylumbelliferyl-N-acetyl-α-D-glucosaminide) in a Naglu activity assay. Briefly, UDP-GlcNAc, as well as GlcNAc, UDP-GalNAc and Glucosamine, were added to the Naglu activity assay at 0.0625, 0.25, 1, 4 and 8 mM concentrations. The fluorescence emitted from these samples was compared to control samples only including rhNaglu and 4MU-GlcNAc.

Test [1] deals with Soluble cation-independent mannose-6-phosphate receptor (sCI-M6PR). The test is described as follows: plate-based sCI-M6PR binding ELISA (sCI-M6PR coated, HRP anti-Naglu polyclonal #2957 detection); KD extrapolated from binding curves.
For another test, the target named is T2, CI-M6PR (Homo sapiens, UniProt P11717).
T2 construct: the secreted sCI-M6PR was purified from the tissue culture medium; made in house
Put plainly: Plate based sCI-M6PR binding assay (ELISA). Here is the method: (1) Generation of sCI-M6PR (soluble CI-M6PR)—Full length M6PR was expressed in genetically modified tissue culture cells, and the secreted sCI-M6PR was purified from the tissue culture medium using an aminophenyl-M6P conjugated resin (Beljaars et al., 1999). N-terminal sequencing and LC/MS/MS analysis of the obtained protein confirmed the amino acid sequence of the sCI-M6PR, and MALDI analysis confirmed that its molecular mass was 279,492 Da.
100 μl of sCI-M6PR(2.5 μg/ml) in DPBS were coated on MaxiSorp® Nunc-Immuno flat-bottom 96-well plates (Thermo Fisher Scientific, Inc., Sunnyvale, Calif.). After incubation for 1 hour at 37° C., the plates was washed with ELISA wash buffer (0.1% Tween-20 in DPBS). sCI-M6PR coated wells were blocked with 300 μl ELISA blocking buffer (DPBS, 2% BSA, 0.05% Tween 20) at 37° C. for 1 hour. Appropriate dilutions of sGNPT-modified Naglu-Kif (and rhNaglu as control) were made in blocking buffer and added to the wells. After 1 hour incubation at 37° C., the plates were washed with ELISA wash buffer, and 100 μl of HRP-conjugated rabbit anti-Naglu polyclonal antibody #2957 diluted in blocking buffer were added. After 1 hour incubation at 37° C., the plates was washed again with ELISA wash buffer. The ELISA was developed using TMB peroxidase substrate solution (KPL, Inc., Gaithersburg, Mass.) by following the manufacturer's protocol.
sGNPT transfers the phospho-GlcNAc group from UDP-GlcNAc to mannose sugar, and the resulting mannose-6-phosphate-GlcNAc is called the Capped-M6P. During the normal intracellular glycosylation process, the decapping enzyme (N-acetylglucosamine 1-phosphodiester α-N-acetyglucosaminidase) removes the GlcNAc from the Capped-M6P, to generate M6P. But without decapping, the Capped-M6P can also bind to CI-M6PR. Capped-M6P binds to domain 5 of CI-M6PR rather than to domain 3 or 9, as M6P does (Bohnsack et al. 2009). The amount of Capped-M6P on Naglu-Kif can be indirectly evaluated using a CI-M6PR plate binding assay. In this binding assay the affinity with which Naglu-Kif bound to CI-M6PR increased in proportion to the amount of sGNPT used (35 μg, 70 μg and 140 (corresponding to about 4.2 μM) (green, red and empty circle in FIG. 8, respectively)) to modify Naglu-Kif and thus the extent of Capped-M6P found on Naglu-Kif (FIG. 8). […] These binding reactions were repeated in two different buffer systems, i.e., in a sodium acetate buffer (40 mM NaAc pH 6.5, 10 mM MnCl2, 10 mM MgCl2) and in a Tris buffer (50 mM Tris pH 7.4, 10 mM MnCl2, 10 mM MgCl2), which gave similar results. Contrary to Naglu-Kif, rhNaglu was not phosphorylated by sGNPT under the same conditions due to the lack of high-mannose glycans.

Consider `CC(=O)N[C@H]1C(O)O[C@H](CO)[C@@H](O)[C@@H]1O` (stereo partly drawn) [GlcNAc, N-acetylglucosamine], for which, at rhNaglu, the “inhibition of rhNaglu activity toward 4MU-GlcNAc” value is “Inhibition”.
Same read-out and setting: the same measure for `N[C@H]1C(O)O[C@H](CO)[C@@H](O)[C@@H]1O` (stereo partly drawn) [glucosamine]: “not inhibited”.
Broadly, the Kd is the constant that tells how readily two partners part at equilibrium. On to “Naglu-Kif (high-mannose-containing recombinant human Naglu) modified in vitro with 35 µg sGNPT (from UniProt P54802 24-743) (enzyme)”, for which the Kd in test [1] is 15.3 nM.
Same read-out and setting: the same measure for “Naglu-Kif (high-mannose-containing recombinant human Naglu) modified in vitro with 70 µg sGNPT (from UniProt P54802 24-743) (enzyme)”: 5.92 nM.
On to “Naglu-Kif (high-mannose-containing recombinant human Naglu) modified in vitro with 140 µg sGNPT (from UniProt P54802 24-743) (enzyme)”, for which, in test [1], the dissociation constant Kd was 1.48 nM.
Take “uridine diphosphate N-acetyl galactosamine [UDP-GalNAc]”: at rhNaglu, the “inhibition of rhNaglu activity toward 4MU-GlcNAc” value is given as “not inhibited”.

B1: Naglu-Kif: high-mannose-containing recombinant human Naglu purified from HT1080 cells grown with 2 mg/l Kifunensine; tested after sGNPT modification (protein)
chain: T1 sequence (P54802 24-743)
With B1, the dissociation constant Kd with CI-M6PR (Naglu-Kif modified with 35 μg sGNPT) is 15.3 nM; with CI-M6PR (Naglu-Kif modified with 70 μg sGNPT), 5.92 nM; with CI-M6PR (Naglu-Kif modified with 140 sGNPT (about 4.2 μM)), 1.48 nM.

Values taken from patent US20170267986A1, “GENERATION OF MANNOSE-6-PHOSPHATE CONTAINING RECOMBINANT ALPHA-N-ACETYL GLUCOSAMINIDASE” (SHIRE HUMAN GENETIC THERAPIES, INC., priority 2014, published 2017).
